Numbering of substitutions follows the chain as printed.

T1: CD73 on the cell surface of Calu6 cells (UniProt P21589 27-549, limits assumed)
T1 sequence (looked up): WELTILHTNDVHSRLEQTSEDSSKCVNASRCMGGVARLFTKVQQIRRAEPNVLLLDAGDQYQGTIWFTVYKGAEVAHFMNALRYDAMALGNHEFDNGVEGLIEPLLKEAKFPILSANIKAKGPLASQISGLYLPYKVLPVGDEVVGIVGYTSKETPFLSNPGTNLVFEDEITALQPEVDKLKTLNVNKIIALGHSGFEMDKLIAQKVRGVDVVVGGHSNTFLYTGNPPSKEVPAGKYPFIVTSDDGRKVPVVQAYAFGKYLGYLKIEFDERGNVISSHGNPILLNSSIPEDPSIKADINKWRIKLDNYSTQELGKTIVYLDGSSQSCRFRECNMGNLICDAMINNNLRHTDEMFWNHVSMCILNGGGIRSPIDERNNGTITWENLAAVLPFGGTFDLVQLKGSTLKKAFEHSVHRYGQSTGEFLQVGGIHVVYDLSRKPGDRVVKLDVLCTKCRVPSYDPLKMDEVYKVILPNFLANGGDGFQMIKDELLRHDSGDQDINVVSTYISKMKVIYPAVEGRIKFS

T2: Trypsin inhibitor type 1-S from Glycine max (Sigma, T-2327) (Glycine max, UniProt P01070 25-205)
T2 construct: Non-target molecule, amine-coupled to a CM5 chip
T2 sequence (looked up): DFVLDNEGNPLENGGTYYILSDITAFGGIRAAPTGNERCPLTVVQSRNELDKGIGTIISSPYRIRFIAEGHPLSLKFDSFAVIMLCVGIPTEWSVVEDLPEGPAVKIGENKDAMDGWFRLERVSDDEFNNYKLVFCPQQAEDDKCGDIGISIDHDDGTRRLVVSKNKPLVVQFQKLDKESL

T3: Cynomolgus CD73 protein (Novoprotein, item No. CI21) (cynomolgus, UniProt A0A2K5V5U7 27-547)
T3 construct: Bought protein
T3 sequence: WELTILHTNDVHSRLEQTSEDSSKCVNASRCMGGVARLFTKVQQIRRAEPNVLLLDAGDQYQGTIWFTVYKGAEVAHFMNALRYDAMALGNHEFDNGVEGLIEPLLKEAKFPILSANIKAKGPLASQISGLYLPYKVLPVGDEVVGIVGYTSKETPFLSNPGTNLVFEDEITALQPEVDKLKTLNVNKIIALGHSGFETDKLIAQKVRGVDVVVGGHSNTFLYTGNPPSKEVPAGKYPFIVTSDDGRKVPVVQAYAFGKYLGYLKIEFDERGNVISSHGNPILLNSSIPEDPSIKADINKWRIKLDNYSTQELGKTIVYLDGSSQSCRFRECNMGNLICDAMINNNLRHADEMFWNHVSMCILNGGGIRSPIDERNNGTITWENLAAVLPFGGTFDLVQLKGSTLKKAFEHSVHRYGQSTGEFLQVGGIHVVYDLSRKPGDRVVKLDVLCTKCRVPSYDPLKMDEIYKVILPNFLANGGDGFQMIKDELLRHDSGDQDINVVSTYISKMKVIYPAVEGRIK

B1: 900567 (human-mouse chimeric anti-CD73 antigen-binding protein expressed from 124A9 variable regions) (antibody, V domains shown)
VH: QVQLQQPGAELVKPGASVKLSCKASGYTFTSYWIHWVKQRPGQGLDWIGMIHPNSGSTYYNEKFKSKATLTVDKSSSTAYMQLSSLTSEDSAVYYCARYYGSDYEWYFDVWGTGTTVTVSS
VL: DIVMTQSQKFMSTSVGDRVSITCKASQNVRTAVVWYQQNPGQSPKALIYLASNRHTGVPDRFTGSGSGTDFTLTISNVHSEDLADYFCLQHWNYPYTFGGGTKLEIK
B2: 900725 (humanized anti-CD73 antigen-binding protein) (antibody, V domains shown)
VH: QVQLVQSGAEVKKPGASVKLSCKASGYTFTSYWIHWVRQAPGQGLEWIGMIHPNSGSTYYNEKFKGRATLTVDKSTSTAYMELSSLRSEDTAVYYCARYYGSDYEWYFDVWGQGTTVTVSS
VL: DIQMTQSPSSMSASVGDRVTITCKASQNVRTAVVWYQQKPGKAPKALIYLASNRHTGVPDRFSGSGSGTDFTLTISSLQPEDFATYFCLQHWNYPYTFGQGTKLEIK
B3: 900728 (humanized anti-CD73 antigen-binding protein) (antibody, V domains shown)
VH: B2 VH with L20V, K65Q, A68V, L70M
VL: B2 VL with M11L, F87Y
B4: 900727 (humanized anti-CD73 antigen-binding protein) (antibody, V domains shown)
VH: B2 VH with L20V, N61A, E62Q, K65Q, A68V, L70I
VL: B2 VL
B5: 900726 (humanized anti-CD73 antigen-binding protein) (antibody, V domains shown)
VH: B2 VH
VL: B2 VL with M11L, F87Y

T4 sequence (P00698 19-147 limits assumed): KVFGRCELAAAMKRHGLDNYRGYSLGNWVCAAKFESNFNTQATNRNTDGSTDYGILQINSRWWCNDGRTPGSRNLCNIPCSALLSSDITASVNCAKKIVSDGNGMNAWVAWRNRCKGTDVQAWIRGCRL

The target in the first experiment is T1, CD73 on the cell surface of Calu6 cells. Nature of the experiment: cell-based or functional assay.
For the molecule B1, the “Endocytosis rate (%)” value amounted to 26.9%.
On the same count and under the same terms, the same measure for B2: 37.5%; for B3: 33.9%.

Another experiment deals with T2, Trypsin inhibitor type 1-S from Glycine …. Nature of the experiment: SPR, Biacore 8K, trypsin inhibitor immobilized on CM5, antibody at 1000 nM; buffer alone 13.9 RU. How it is done:
(§1) The non-specific adsorption effect of antigen-binding proteins and non-target molecules were determined by using the SPR method.
(§2) The series sensor chip CM5 (GE, #BR-1005-30) was equilibrated at room temperature for 20-30 min and then loaded into the Biacore 8K (GE) instrument. Lysozyme solution (Sigma, #L3790) from egg and trypsin inhibitor type 1-S (Sigma, #T-2327) from Glycine max were immobilized onto the CM5 chip using an amino coupling kit (GE, #BR-1000-50). The injection buffer was HBS-EP (1×) (GE, #BR-1006-69) and four equilibration cycles were set up. The polyclonal rabbit anti-lysozyme (ABcam, Ab391), anti-trypsin inhibitor antibodies (LifeSpan Biosciences, #LS-C76609), chimeric antibodies and humanized antibodies were diluted with equilibration buffer to 1000 nM, and the flow rate was set at 5 μL/min and injection channels 1, 2 and 3, Flow Cell 1 and 2 were selected. The association time was 10 min and the dissociation time was 10 min.
(§3) The PI of carboxymethyl dextran was 3.5, the PI of the trypsin inhibitor was 4.5, and the PI of lysozyme was 11.3. In the HBS-EP buffer solution with a pH of 7.4, carboxymethyl dextran and the trypsin inhibitor had strong negative charges, and lysozyme had strong positive charges.
Background: In SPR one partner is held on a chip, and binding of the other changes the refractive index at the surface.
As for B1, the “non-specific binding amount (RU)” value is 12.8 RU.
Still for that read-out and setting: the same measure for B2: 12.6 RU; for B3: 13.5 RU; for B4: 11.6 RU.
Take B5: the “non-specific binding amount (RU)” value came to 15.4 RU.

The next experiment has as its target T4, Lysozyme from chicken egg (Sigma, L3790) (chicken, UniProt P00698 19-147).
T4 construct: Non-target molecule, amine-coupled to a CM5 chip
Nature of the experiment: SPR, Biacore 8K, lysozyme immobilized on CM5, antibody at 1000 nM; buffer alone 16.9 RU. Here is the method: as §1, §2, §3
Take B1: the “non-specific binding amount (RU)” value amounted to 15.8 RU.
For the molecule B2, the “non-specific binding amount (RU)” value is 20.3 RU.
The same measure, in the same setting: the same measure for B3: 20.2 RU; for B4: 17.6 RU.
B5: the “non-specific binding amount (RU)” value was determined as 17.7 RU.

The target in the next experiment is T3, Cynomolgus CD73 protein (Novoprotein, …). Nature of the experiment: SPR, Biacore T200, antibody captured on protein A chip, cynomolgus CD73 as analyte, 1:1 model. How it is done: In the tests, the assay buffer HBS-EP+ (pH 7.4) and the protein A chip (manufacturer: GE, item No.: 29-1275-56) were used.
The temperatures of a sample chamber and a flow path were set at 25° C., and the protein A chip respectively captured antigen-binding proteins as ligands and immobilized at about 100 RU. […] After association for 120 s at a flow rate of 30 μL/min, dissociation was carried out for 600 s. Regeneration was then carried out for 60 s with 10 mM Glycine (pH 1.5) at a flow rate of 50 μL/min to implement multi-cycle kinetic detection. A 1:1 binding model was selected for fitting analysis in a Fit local mode to acquire the association rate constant (ka), dissociation rate constant (kd) and dissociation equilibrium rate constant (KD).
As to B1, the Kd (usually the constant that tells how readily two partners part at equilibrium) came to 0.709 nM; the off-rate (koff) (usually the first-order rate constant of dissociation) was 0.000606 s⁻¹; the kon – broadly, a measure of how fast the partners come together – amounted to 855000 M⁻¹ s⁻¹.
The matching figures for B2: 0.368 nM, 0.000156 s⁻¹ and 425000 M⁻¹ s⁻¹.
With B3, the Kd was 0.561 nM, the koff was found to be 0.000381 s⁻¹ and the kon came out at 678000 M⁻¹ s⁻¹.
In the same order, the values of B4 are 0.798 nM, 0.00074 s⁻¹ and 927000 M⁻¹ s⁻¹.
Consider B5, for which binding was characterised by a dissociation constant (Kd) of 2 nM, the dissociation rate constant (koff) was 0.0032 s⁻¹ and the kon was found to be 1.6e+06 M⁻¹ s⁻¹.
